According to PMC3741392, “The Tip of the Tail Needle Affects the Rate of DNA Delivery by Bacteriophage P22” (PLoS ONE, 2013):

Molecular target: the molecule itself
Assay: crystal structure; hanging drop vapor diffusion, 26% PEG 3350, 50 mM Tris-HCl pH 8.0; space group P212121; one trimer in the asymmetric unit; 1.1 Å

B1: bacteriophage HS1 tail needle knob (domain or fragment)
chain: RISALEYATTRKKSEVVYSGVSVTIPTAPTNLVSLLKTLTPSSGTLAPFFDTVNNKMVVFNENKTLFFKLSIVGTWPSGTANRSMQLTFSGSVPDTLVSSRNSATTTDNILLATFFSVDKDGFLATNGSTLTIQSNGAAFTATTIKIIAEQ
- stoichiometry N: 3
